Consider 2 molecules from article PMC7870927, “Mechanism of the small ATP-independent chaperone Spy is substrate specific” (Nature Communications, 2021).

Assay [1] concerns the target Im7 (intermediate and unfolded states) (Escherichia coli) (UniProt Q03708). The conditions noted are these: cited from earlier work.
A further assay concerns the target Fyn SH3 (native) SH3 (UniProt P06241). As to conditions: cited from earlier work.
The next assay deals with Fyn SH3 (unfolded) SH3 (UniProt P06241). As to conditions: cited from earlier work.
For assay [2], the target named is Im7 (native) (Escherichia coli) (UniProt Q03708). As to conditions: cited from earlier work.
Assay [3] has as its target T1, apoflavodoxin from Anabaena PCC 7119, wild type (Anabaena PCC 7119, UniProt P0A3E0 3-170).
T1 chain: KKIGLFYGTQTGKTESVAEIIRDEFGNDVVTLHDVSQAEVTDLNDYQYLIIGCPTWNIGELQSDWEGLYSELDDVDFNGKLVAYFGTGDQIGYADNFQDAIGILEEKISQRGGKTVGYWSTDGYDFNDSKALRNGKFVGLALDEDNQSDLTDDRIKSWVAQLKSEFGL
Put plainly: ITC; 10 °C.

Assay [4] concerns the target T2, apoflavodoxin from Anabaena PCC 7119, L105A I109A double mutant (Anabaena PCC 7119, UniProt P0A3E0 3-170, L105A | I109A).
T2 construct: flavodoxin (apo form) from Anabaena PCC 7119 with the two destabilising mutations L105A and I109A; also called AnFld 2A; AnFld2A; source: E. coli BL21 (DE3), purified (same protocol as AnFld WT); not shown: His6, N-terminal, cleaved; SUMO, N-terminal, cleaved
T2 sequence: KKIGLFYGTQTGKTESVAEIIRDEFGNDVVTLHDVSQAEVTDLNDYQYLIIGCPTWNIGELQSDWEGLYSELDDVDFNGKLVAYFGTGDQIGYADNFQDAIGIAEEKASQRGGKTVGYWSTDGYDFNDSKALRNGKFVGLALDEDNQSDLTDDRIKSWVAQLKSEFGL
Description: ITC + other: kinetic unfolding experiments; ITC: 1.2 mM Spy dimer in the syringe, 100 µM AnFld 2A in the cell; 40 mM HEPES-KOH pH 7.5, 100 mM NaCl; one-site or two-site models; two binding-competent conformations of AnFld 2A. As to conditions: both partners purified.

In assay [5] the target is T3, apoflavodoxin from Anabaena PCC 7119, L105A I109A double mutant (Anabaena PCC 7119, UniProt P0A3E0 3-170, L105A | I109A).
T3 sequence: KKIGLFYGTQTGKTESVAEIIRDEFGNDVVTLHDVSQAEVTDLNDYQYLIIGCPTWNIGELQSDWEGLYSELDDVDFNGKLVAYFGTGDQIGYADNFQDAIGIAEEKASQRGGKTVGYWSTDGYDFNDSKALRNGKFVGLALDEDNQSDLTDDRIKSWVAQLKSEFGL
Description: ITC; second site (K2). Background: ITC needs no label: the signal is the heat of the interaction.

In assay [6] the target is T4, apoflavodoxin from Anabaena PCC 7119, wild type (Anabaena PCC 7119, UniProt P0A3E0 3-170).
T4 construct: flavodoxin (apo form, without FMN) from Anabaena PCC 7119; gene codon-optimised, synthesised by GenScript; The same protein was used native and urea-denatured (5 M urea, then diluted: state U*); the assays tell the two apart; [U-2H,15N,13C]-labelled for the NMR titration; also called AnFld; AnFld WT; source: E. coli BL21 (DE3), purified (Ni-His Trap, ULP1 cleavage, HiTrap Q, Superdex 75; …)
T4 sequence: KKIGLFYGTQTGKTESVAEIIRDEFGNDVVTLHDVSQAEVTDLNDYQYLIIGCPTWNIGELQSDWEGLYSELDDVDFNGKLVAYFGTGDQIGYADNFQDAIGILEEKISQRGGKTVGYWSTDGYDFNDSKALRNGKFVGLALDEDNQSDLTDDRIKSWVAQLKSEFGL
Put plainly: other fluorescence titration; stopped-flow refolding: AnFld denatured in 5 M urea diluted 11.5-fold (0.09 µM final) into HN buffer (40 mM HEPES-KOH pH 7.5, 100 mM NaCl) with Spy dimer, 25 °C; normalised initial tryptophan fluorescence against Spy dimer concentration, one-site binding model; non-native state U* of AnFld. The conditions noted are these: both partners purified.

In assay [7] the target is T3, apoflavodoxin from Anabaena PCC 7119, …. Description: ITC; first site (K1).
Assay [8] addresses T4, apoflavodoxin from Anabaena PCC 7119, …. Description: ITC; 550 µM Spy dimer in the syringe, 50 µM AnFld WT in the cell; 40 mM HEPES-KOH pH 7.5, 100 mM NaCl; MicroCal iTC200; temperature not shown. As to conditions: both partners purified.
The target of assay [9] is T2, apoflavodoxin from Anabaena PCC 7119, …. Put plainly: other fluorescence titration; equilibrium titration of Spy dimer into 17.2 µM native AnFld WT (square hyperbola, one-site) or 10 µM AnFld 2A (quadratic tight-binding model) in HN buffer, 25 °C; intrinsic tryptophan fluorescence at 340 nm; apparent. As to conditions: both partners purified.
The target in assay [10] is T4, apoflavodoxin from Anabaena PCC 7119, …. Described as above. The conditions noted are these: both partners purified.
In assay [11] the target is T5, apoflavodoxin from Anabaena PCC 7119, F98N mutant (Anabaena PCC 7119, UniProt P0A3E0 3-170, F98N).
T5 sequence: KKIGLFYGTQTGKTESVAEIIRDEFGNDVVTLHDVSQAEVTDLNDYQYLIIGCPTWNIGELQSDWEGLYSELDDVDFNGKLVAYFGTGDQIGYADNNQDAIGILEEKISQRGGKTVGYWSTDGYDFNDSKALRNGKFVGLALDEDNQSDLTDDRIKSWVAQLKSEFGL
Put plainly: ITC; 10 °C.

The target of assay [12] is T6, apoflavodoxin from Anabaena PCC 7119, F98N mutant (Anabaena PCC 7119, UniProt P0A3E0 3-170, F98N).
T6 construct: also called AnFld F98N; I^T mimic; source: E. coli BL21 (DE3), purified (same protocol as AnFld WT); not shown: His6, N-terminal, cleaved; SUMO, N-terminal, cleaved
T6 sequence: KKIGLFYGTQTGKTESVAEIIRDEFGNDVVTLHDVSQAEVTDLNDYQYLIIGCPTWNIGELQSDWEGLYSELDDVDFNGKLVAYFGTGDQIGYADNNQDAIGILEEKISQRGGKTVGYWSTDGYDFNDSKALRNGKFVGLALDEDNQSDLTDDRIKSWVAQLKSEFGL
Put plainly: ITC; 550 µM Spy dimer in the syringe, 50 µM AnFld F98N in the cell; 40 mM HEPES-KOH pH 7.5, 100 mM NaCl; 10 °C; one-site binding model. The conditions noted are these: both partners purified.

Assay [13] addresses T1, apoflavodoxin from Anabaena PCC 7119, …. Put plainly: initial fluorescence from kinetic fits.
The target of assay [14] is T4, apoflavodoxin from Anabaena PCC 7119, …. Description: AUC; sedimentation velocity of Spy with AnFld or AzoFld, 48,000 r.p.m., absorbance at 280 nm; 2DSA, genetic algorithm, Monte Carlo. As to conditions: both partners purified.
Assay [15] deals with T7, apoflavodoxin from Azotobacter vinelandii, C69A (Azotobacter vinelandii, UniProt P00324 1-180, C69A).
T7 construct: flavodoxin (apo form) from Azotobacter vinelandii with C69A; The only AzoFld gene that the methods name is C69A; also called AzoFld; AzoFld C69A; source: E. coli BL21 (DE3), purified (same protocol as AnFld WT); not shown: His6, N-terminal, cleaved; SUMO, N-terminal, cleaved
The assay is described as above. As to conditions: both partners purified.

Several values for one entry are separate records, joined by “and”; a condition that tells them apart may be missing. Equal entries are not always repeated.

Im7 (native) (Escherichia coli), sequence (Q03708 whole entry): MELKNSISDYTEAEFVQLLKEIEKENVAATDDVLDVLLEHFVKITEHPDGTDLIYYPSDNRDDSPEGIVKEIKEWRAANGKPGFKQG
Im7 (intermediate and unfolded states) (Escherichia coli), sequence (Q03708 whole entry): as above
T7 sequence (P00324 whole entry C70A): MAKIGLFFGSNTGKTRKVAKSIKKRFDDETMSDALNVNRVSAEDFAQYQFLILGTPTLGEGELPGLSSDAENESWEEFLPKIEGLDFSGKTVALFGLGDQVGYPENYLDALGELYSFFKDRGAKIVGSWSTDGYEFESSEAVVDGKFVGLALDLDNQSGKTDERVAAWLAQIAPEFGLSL
Fyn SH3 (unfolded) SH3, sequence (P06241 82-143): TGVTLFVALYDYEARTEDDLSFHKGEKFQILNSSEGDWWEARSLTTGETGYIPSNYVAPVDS
Fyn SH3 (native) SH3, sequence (P06241 82-143): as above

Take Spy (from UniProt P77754): the Kd in [1] is 4.7 µM; with Fyn SH3 (native) SH3, 50 µM; with Fyn SH3 (unfolded) SH3, 2.9 µM; in assay [2], 20.5 µM.

B1: Spy (small bacterial ATP-independent chaperone) (natural protein, UniProt P77754 24-161, looked up)
chain: ADTTTAAPADAKPMMHHKGKFGPHQDMMFKDLNLTDAQKQQIREIMKGQRDQMKRPPLEERRAMHDIIASDTFDKVKAEAQIAKMEEQRKANMLAHMETQNKIYNILTPEQKKQFNANFEKRLTERPAAKGKMPATAE
notes: chaperone Spy; Used and counted as a dimer throughout ('Spy dimer'); also called Spy dimer; SpyD; source: E. coli BL21 (DE3), purified (Ni-His Trap, ULP1 cleavage, HiTrap Q, HiLoad Superdex 75); not shown: His6, N-terminal, cleaved; SUMO, N-terminal, cleaved
What is called stoichiometry N is a count of units in the complex or per binding partner. Turning to B1, the Ka in assay [3] was 35500 M⁻¹; in assay [5], 4.37e+06 M⁻¹; in assay [7], 2.65e+06 M⁻¹; in assay [11], 801000 M⁻¹. In assay [4], the “KD of one of two binding-competent conformations of AnFld 2A” value was 0.23 µM and 0.38 µM. Besides, the Kd amounted to 0.35 µM in [6]; 28.2 µM in assay [8]; 0.1 µM in [9]; 40 µM in assay [10]; 1.8 µM in assay [12]; 17.7 µM in assay [13]. The “stoichiometry N” value in assay [14] is 1 AnFld per Spy dimer; in assay [15], 1 AzoFld per Spy dimer.
